Reference: PMC10362042
Values joined by “and” are separate entries in the source; they are usually repeats but may differ in a detail not shown here. Equal entries are not always repeated. Where two headings read alike, the source gives them in different places.

Tests used:
Experiment in all cases: SPR
Pig ACE2 (pig) [1] = target: Pig ACE2 (pig)
Goat ACE2 (goat) = target: Goat ACE2 (goat)
Dog ACE2 (dog) = target: Dog ACE2 (dog)
Rabbit ACE2 (rabbit) = target: Rabbit ACE2 (rabbit)
Pig ACE2 (pig) [2] = target: Pig ACE2 (pig); remark: listed apart in the source
Sheep ACE2 (sheep) = target: Sheep ACE2 (sheep)

Substance | Kd (Pig ACE2 (pig) [1]) | Kd (Goat ACE2 (goat)) | Kd (Dog ACE2 (dog)) | Kd (Rabbit ACE2 (rabbit)) | Kd (Pig ACE2 (pig) [2]) | Kd (Sheep ACE2 (sheep))
SARS-CoV-2 Omicron BA.4/5 RBD (residues 319-541) (from UniProt P0DTC2 319-541) (domain or fragment) | 0.0061 µM and 0.0072 µM and 0.008 µM | 0.0291 µM and 0.0262 µM and 0.0253 µM | 0.211 µM and 0.145 µM and 0.186 µM |  |  | 
SARS-CoV-2 Omicron BA.2 RBD (residues 319-541) (from UniProt P0DTC2 319-541) (domain or fragment) | 0.654 µM and 0.662 µM | 111 nM and 102 nM and 106 nM (2×) |  | 0.0763 µM and 0.0538 µM and 0.0593 µM | 0.719 µM and 0.678 µM | 
SARS-CoV-2 Omicron BA.1 RBD (residues 319-541) (from UniProt P0DTC2 319-541) (domain or fragment) |  | 174 nM and 180 nM (2×) and 188 nM |  | 0.06 µM and 0.0437 µM |  | 0.062 µM and 0.0668 µM and 0.0715 µM
